Experimental data taken from patent US7811569 (INSTITUT PASTEUR, dated 2010).

T1: synthetic peptide MSP-3211-237 (Plasmodium falciparum)
T1 construct: also called MSP-3b
T1 peptide: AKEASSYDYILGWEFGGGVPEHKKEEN

T2: synthetic peptide MSP-3190-217 (Plasmodium falciparum)
T2 peptide: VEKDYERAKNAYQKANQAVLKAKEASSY

B1: recombinant MSP-3194-257 (other)
chain: HERAKNAYQKANQAVLKAKEASSYDYILGWEFGGGVPEHKKEENMLSHLYVSSKDKENISKENE
notes: also called panning antigen
B2: RAM2 Fab-ΔpIII (Fab, V domains shown)
VH: QVQLQESGGGLVKPGGSLKLSCAASGFTFSSYGMSWVRQTPDKRLEWVATISSGGSYTYYPDSVKGRFTISRDNAKNTLYLQMSSLKSEDTAMYYCARLYYGYRYYFDYWGQGTMVTVSS
VL: DIQLTQSPSSLSASIGDRVTITCQASQDITNSLNWYQQRPGQAPKLLIYDAFTLKTGVPSRFSGRGSGTSFTIAINSFQAEDIGTYFCQQSHRVPFTFGGGTRVEIKR
notes: Human Fab made in E. coli from pFAB73H; VH is joined to human gamma 1 CH1 (residues 118 to 230), then a spacer with a trypsin site and truncated f1 phage pIII (ΔpIII); The light chain is VK plus human kappa constant domain; also called Fab-ΔpIII RAM2; RAM2 in the Fab-ΔpIII format

Tests used:
[1] = target: T3, native MSP-3 antigen of Plasmodium falciparum clone 3D7 schizonts and merozoites (Plasmodium falciparum); assay: flow cytometry on ethanol-fixed permeabilized schizonts, FITC anti-human Fab
T3 construct: whole, on cells; The motif 220-230 is also present in MSP-6; also called native malaria antigen; parasite proteins
Procedure: The gating was placed to include the majority of the infected cells. The gating was used for the histograms described below.
Parasites were then washed in PBS with 1% BSA, incubated over night with antibody (Fab-ΔpIII or IgG1), washed twice with PBS supplemented with 1% BSA and incubated for 30 minutes with FITC-conjugated goat anti-human Fab (Sigma F5512) diluted 1:25. Cells were analyzed in a Coulter EPICS-2 flow cytometer. Hib-CP specific antibody was used as control in corresponding concentrations.

RAM2 Fab-ΔpIII = target: B2; assay: antigen competition ELISA; soluble antigen 4 nM to 1250 nM against coated MSP-3194-257
recombinant MSP-3194-257 = target: B1; assay: direct ELISA, coated recombinant antigen
[2] = target: T1, synthetic peptide MSP-3211-237; assay: ELISA on synthetic peptides
[3] = target: T2, synthetic peptide MSP-3190-217; assay: ELISA on synthetic peptides

Binder	percent of events under the bar M1 [1]	further results
RAM3 Fab-ΔpIII (Fab, V domains shown, Human Fab made in E. coli from pFAB73H; VH is joined to human gamma 1 CH1 (residues 118 to 230), then a spacer with a trypsin site and truncated f1 phage pIII (ΔpIII); The light chain is VK plus human kappa constant domain; also called Fab-ΔpIII RAM3; RAM3 in the Fab-ΔpIII format) VH: QVQLVQSGGGVVQPGRSLRLSCAASGFTFSSYAMHWVRQAPGKGLEWVAVISYDGSNKYYADSVKGRFTISRDNSKNTLYLQMNSLRAEDKAVYYCARDSGGIAARLGGYFDLWGRGTTVTVSS VL: DIRMTQSPSFLSASVGDRVTITCRASQGISSYLAWYQQKPGKAPKLLIYAASTLQSGVPSRFSGSGSGTEFTLTISSLQPEDFATYYCQQGPTFGGGTKVEIKR	4%	–
RAM1 Fab-ΔpIII (Fab, V domains shown, Human Fab made in E. coli from pFAB73H; VH is joined to human gamma 1 CH1 (residues 118 to 230 of the H chain), then a spacer with a trypsin cleavage site and truncated f1 phage protein pIII (ΔpIII); The light chain is VK plus human kappa constant domain; also called Fab-ΔpIII RAM1; RAM1 in the Fab-ΔpIII format) VH: QVQLVQSGGGVVQPGRSLRLSCAASGFTFSSYAMHWVRQAPGKGLEWVAVISYDGSNKYYADSVKGRFTISRDNSKNTLYLQMSSLRAEDTAVYYCVKGASSWSTGTLVTVSS VL: DIVMMQSPATLSASVGDRVTITCRASQSISSWLAWYQQKPGKAPNLLIYKASSLESGVPSRFSGSGSGTEFTLTISSLQPDDFATYYCQQYKSFPYTFGQGTRLEIKR	76%	–
RAM1 IgG1 (antibody, V domains shown, Intact human IgG1 kappa, allotype G1m(a,z), made in CHO cells from pLNOH2 and pLNOK; also called IgG1 anti-MSP3; RAM1 in the IgG1 format) VH: QVQLVQSGGGVVQPGRSLRLSCAASGFTFSSYAMHWVRQAPGKGLEWVAVISYDGSNKYYADSVKGRFTISRDNSKNTLYLQMSSLRAEDTAVYYCVKGASSWSTGTLVTVSS VL: DIVMMQSPATLSASVGDRVTITCRASQSISSWLAWYQQKPGKAPNLLIYKASSLESGVPSRFSGSGSGTEFTLTISSLQPDDFATYYCQQYKSFPYTFGQGTRLEIKR	47%	–
B1	–	binding result (RAM2 Fab-ΔpIII): binds
B2	28%	binding result (recombinant MSP-3194-257): binds
RAM2 IgG1 (antibody, V domains shown, Intact human IgG1 kappa, allotype G1m(a,z), made in CHO cells) VH: QVQLQESGGGLVKPGGSLKLSCAASGFTFSSYGMSWVRQTPDKRLEWVATISSGGSYTYYPDSVKGRFTISRDNAKNTLYLQMSSLKSEDTAMYYCARLYYGYRYYFDYWGQGTMVTVSS VL: DIQLTQSPSSLSASIGDRVTITCQASQDITNSLNWYQQRPGQAPKLLIYDAFTLKTGVPSRFSGRGSGTSFTIAINSFQAEDIGTYFCQQSHRVPFTFGGGTRVEIKR	–	binding result [2]: binds; binding result [3]: binds
